The values below come from PMC6557901, “Rif1 S-acylation mediates DNA double-strand break repair at the inner nuclear membrane”.

The target of the data set is T1, Rif1 NTD (100-1322) wild-type (Saccharomyces cerevisiae, UniProt P29539 100-1322).
T1 sequence: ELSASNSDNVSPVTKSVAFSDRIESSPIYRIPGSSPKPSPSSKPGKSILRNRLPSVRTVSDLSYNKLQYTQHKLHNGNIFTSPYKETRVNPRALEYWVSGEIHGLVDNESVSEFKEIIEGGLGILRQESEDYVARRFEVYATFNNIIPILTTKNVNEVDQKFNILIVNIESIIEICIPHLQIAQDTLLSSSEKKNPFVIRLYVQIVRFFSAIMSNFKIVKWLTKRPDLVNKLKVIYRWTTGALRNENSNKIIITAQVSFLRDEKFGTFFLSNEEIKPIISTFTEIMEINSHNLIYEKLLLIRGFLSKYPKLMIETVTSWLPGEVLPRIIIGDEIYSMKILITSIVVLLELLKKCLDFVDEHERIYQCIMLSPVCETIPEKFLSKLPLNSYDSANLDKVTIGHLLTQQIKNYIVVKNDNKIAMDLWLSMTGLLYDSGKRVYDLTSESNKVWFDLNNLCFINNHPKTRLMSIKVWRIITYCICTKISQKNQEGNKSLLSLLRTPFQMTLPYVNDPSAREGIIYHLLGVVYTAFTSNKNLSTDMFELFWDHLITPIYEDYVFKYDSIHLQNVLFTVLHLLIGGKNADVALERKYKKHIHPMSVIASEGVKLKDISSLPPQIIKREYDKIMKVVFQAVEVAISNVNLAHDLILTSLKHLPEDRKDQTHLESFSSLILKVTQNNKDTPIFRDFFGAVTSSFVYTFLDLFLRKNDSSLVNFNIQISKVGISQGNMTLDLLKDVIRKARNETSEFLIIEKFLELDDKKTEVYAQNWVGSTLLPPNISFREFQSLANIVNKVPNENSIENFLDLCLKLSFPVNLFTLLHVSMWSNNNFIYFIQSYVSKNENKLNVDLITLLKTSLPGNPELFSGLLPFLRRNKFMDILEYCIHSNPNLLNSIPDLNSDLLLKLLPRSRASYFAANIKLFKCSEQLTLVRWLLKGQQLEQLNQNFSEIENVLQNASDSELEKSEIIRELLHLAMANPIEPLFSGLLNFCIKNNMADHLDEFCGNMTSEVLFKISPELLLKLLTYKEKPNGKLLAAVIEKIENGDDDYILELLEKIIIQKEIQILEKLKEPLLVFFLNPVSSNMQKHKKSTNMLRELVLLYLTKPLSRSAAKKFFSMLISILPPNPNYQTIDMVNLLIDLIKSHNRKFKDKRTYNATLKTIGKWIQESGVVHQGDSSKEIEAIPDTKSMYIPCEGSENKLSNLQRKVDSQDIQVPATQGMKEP
Kind of data set: EMSA; protein 10-160 nM, DNA 1 nM; 20 mM Tris-HCl pH 8.0, 100 mM NaCl, 2.5 mM MgCl2, 10 mM CaCl2, 0.1 mg/ml BSA, 1 mM TCEP, 30 min at 20 °C; 1.2% agarose gel, 0.5x TBE, 4 °C. The following applies: protein: recombinant; tags: N-terminal Strep(II); label: 5'-32P on EMSA1; blunt.

B1: 30 bp dsDNA (EMSA1/EMSA2) (dsDNA)
DNA 1: TAGCAAGGCACTGGTAGAATTCGGCAGCGT
DNA 2: ACGCTGCCGAATTCTACCAGTGCCTTGCTA
As to B1, the binding result is listed as “binds”.
